Laboratory results reported in PMC5469197, “ANGUSTIFOLIA, a Plant Homolog of CtBP/BARS Localizes to Stress Granules and Regulates Their Formation” (Frontiers in Plant Science, 2017).

How the values were obtained:
Test in all cases: co-IP; LUMIER in HEK293TN cells: Prot-A fusion co-transfected with Renilla luciferase fusion (AN always the luciferase fusion with the interactors); luciferase activity before (input) and after pulldown; percentage pulldown = pulldown/input x 100; empty vectors as negative control; positive if more than two times the background
Conditions in all cases: partners not purified
[1] = target: T1, EUKARYOTIC INITIATION FACTOR 4E1 (EIF4E1), Prot-A fusion (Arabidopsis thaliana, UniProt O23252 1-235)
T1 construct: Eukaryotic initiation factor 4E1, Arabidopsis thaliana, AT4G18040; CDS amplified from Col-0 cDNA; source: HEK293TN cells, transfected; not shown: Protein A (Staphylococcus aureus), N-terminal, kept
T1 sequence (looked up): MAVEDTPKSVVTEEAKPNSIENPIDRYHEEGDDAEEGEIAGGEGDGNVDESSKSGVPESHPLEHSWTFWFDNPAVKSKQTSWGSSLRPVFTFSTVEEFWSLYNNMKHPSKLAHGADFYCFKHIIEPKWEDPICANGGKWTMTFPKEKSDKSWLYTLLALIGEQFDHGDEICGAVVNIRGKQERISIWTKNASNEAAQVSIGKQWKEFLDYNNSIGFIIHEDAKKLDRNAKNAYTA

[2] = target: T2, ARGONAUTE1 (AGO1), Prot-A fusion (Arabidopsis thaliana, UniProt O04379 1-1048)
T2 construct: ARGONAUTE1, Arabidopsis thaliana, AT1G48410; CDS amplified from Col-0 cDNA; source: HEK293TN cells, transfected; not shown: Protein A (Staphylococcus aureus), N-terminal, kept
T2 sequence (looked up): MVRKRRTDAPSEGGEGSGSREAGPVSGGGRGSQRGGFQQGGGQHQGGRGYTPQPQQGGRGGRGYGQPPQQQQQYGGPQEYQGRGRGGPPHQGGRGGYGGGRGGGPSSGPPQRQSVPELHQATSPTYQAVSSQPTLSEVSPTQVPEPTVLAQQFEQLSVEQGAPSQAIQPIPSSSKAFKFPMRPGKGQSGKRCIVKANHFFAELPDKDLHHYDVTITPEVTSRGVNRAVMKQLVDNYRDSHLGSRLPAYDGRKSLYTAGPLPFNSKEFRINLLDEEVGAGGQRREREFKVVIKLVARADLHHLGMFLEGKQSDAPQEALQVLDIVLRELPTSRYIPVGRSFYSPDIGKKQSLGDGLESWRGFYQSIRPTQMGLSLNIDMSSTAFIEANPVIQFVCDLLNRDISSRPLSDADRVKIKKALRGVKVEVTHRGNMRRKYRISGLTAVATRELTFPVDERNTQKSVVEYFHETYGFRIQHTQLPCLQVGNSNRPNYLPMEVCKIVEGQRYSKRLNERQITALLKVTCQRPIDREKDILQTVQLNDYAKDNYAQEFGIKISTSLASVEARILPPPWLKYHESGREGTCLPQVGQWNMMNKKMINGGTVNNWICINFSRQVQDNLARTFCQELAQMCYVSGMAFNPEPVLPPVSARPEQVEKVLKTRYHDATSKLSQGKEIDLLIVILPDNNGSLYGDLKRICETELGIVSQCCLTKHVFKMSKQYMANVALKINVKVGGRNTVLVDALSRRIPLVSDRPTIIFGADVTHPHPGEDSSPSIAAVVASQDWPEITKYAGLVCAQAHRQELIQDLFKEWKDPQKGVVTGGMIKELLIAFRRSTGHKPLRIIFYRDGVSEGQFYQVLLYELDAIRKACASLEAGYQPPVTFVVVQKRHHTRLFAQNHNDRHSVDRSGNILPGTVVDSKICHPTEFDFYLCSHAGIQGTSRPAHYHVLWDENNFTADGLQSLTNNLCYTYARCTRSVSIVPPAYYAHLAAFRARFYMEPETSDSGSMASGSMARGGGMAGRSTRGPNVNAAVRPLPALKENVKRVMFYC

[3] = target: T3, RNA BINDING PROTEIN 47B (RBP47B), Prot-A fusion (Arabidopsis thaliana, UniProt Q0WW84 1-435)
T3 construct: RBP47B, Arabidopsis thaliana, AT3G19130; CDS amplified from Col-0 cDNA; source: HEK293TN cells, transfected; not shown: Protein A (Staphylococcus aureus), N-terminal, kept
T3 sequence (looked up): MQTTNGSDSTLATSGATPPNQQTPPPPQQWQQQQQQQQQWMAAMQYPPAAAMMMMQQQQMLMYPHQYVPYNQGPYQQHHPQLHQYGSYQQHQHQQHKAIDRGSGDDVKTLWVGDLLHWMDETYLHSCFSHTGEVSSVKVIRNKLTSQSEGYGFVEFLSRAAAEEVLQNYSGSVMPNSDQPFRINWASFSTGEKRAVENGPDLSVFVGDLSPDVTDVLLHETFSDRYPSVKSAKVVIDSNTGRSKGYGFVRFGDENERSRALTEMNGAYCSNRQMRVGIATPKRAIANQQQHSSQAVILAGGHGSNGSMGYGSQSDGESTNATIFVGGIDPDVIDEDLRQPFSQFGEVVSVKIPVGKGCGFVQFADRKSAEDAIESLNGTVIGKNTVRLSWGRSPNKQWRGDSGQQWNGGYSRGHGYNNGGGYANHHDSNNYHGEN

- fold change from background [1]: 2.83 fold
- percentage pulldown [1]: 0.27%
- fold change from background [2]: 5.02 fold
- percentage pulldown [2]: 0.47%
- fold change from background [3]: 3.53 fold
- percentage pulldown [3]: 0.33%
B1: AN, Renilla luciferase fusion (LUMIER) (natural protein, Arabidopsis thaliana, UniProt O23702 1-636, looked up)
chain: MSKIRSSATMPHRDQPSPASPHVVTLNCIEDCALEQDSLAGVAGVEYVPLSRIADGKIESATAVLLHSLAYLPRAAQRRLRPHQLILCLGSADRAVDSTLAADLGLRLVHVDTSRAEEIADTVMALILGLLRRTHLLSRHALSASGWLGSLQPLCRGMRRCRGMVLGIVGRSVSARYLASRSLAFKMSVLYFDVPEGDEERIRPSRFPRAARRMDTLNDLLAASDVISLHCALTNDTVQILNAECLQHIKPGAFLVNTGSCQLLDDCAVKQLLIDGTIAGCALDGAEGPQWMEAWVKEMPNVLILPRSADYSEEVWMEIREKAISILHSFFLDGVIPSNTVSDEEVEESEASEEEEQSPSKHEKLAIVESTSRQQGESTLTSTEIVRREASELKESLSPGQQHVSQNTAVKPEGRRSRSGKKAKKRHSQQKYMQKTDGSSGLNEESTSRRDDIAMSDTEEVLSSSSRCASPEDSRSRKTPLEVMQESSPNQLVMSSKKFIGKSSELLKDGYVVALYAKDLSGLHVSRQRTKNGGWFLDTLSNVSKRDPAAQFIIAYRNKDTVGLRSFAAGGKLLQINRRMEFVFASHSFDVWESWSLEGSLDECRLVNCRNSSAVLDVRVEILAMVGDDGITRWID
notes: ANGUSTIFOLIA (AN), Arabidopsis thaliana, AT1G01510; CDS amplified from Col-0 cDNA; in the dimerisation test the second copy must have been the N-terminal protein A fusion (surmised from the LUMIER format); also called wild-type AN; source: HEK293TN cells, transfected; not shown: Renilla reniformis luciferase, N-terminal, kept
